Data as given in paper PMC6101569 (Nucleic Acids Research, 2018).

Columns and labels:
[1] = molecular target: H2A-H2B histone dimer from Drosophila melanogaster (Drosophila melanogaster, UniProt P84051 2-121; P02283 2-123); assay: ITC
[2] = molecular target: (H3-H4)2 histone tetramer from Drosophila melanogaster (Drosophila melanogaster, UniProt P02299 2-136; P84040 2-103); assay: ITC

Kd [1]: 940 nM
Kd [2]: 3810 nM
B1: APLF acidic domain (APLF^AD), Homo sapiens APLF residues 450-511, wild type (domain or fragment)
chain: DEDNDNVGQPNEYDLNDSFLDDEEEDYEPTDEDSDWEPGKEDEEKEDVEELLKEAKRFMKRK
